Experimental data from patent US20250186614A1, “COMPACT DRUG RESPONSIVE DOMAINS FOR REGULATION OF FUNCTION/ABUNDANCE AND DELIVERY OF POLYPEPTIDE PAYLOADS” (OBSIDIAN THERAPEUTICS, INC., priority 2022, published 2025).
Substitutions are numbered along the chain they refer to. Names may count otherwise.

B1: FKBP-162 (protein)
chain: HCPIKSRKGDVLHAHYTGKLEDGTEFDSSLPRNQPFVFSLGTGERIKGWDQGLLGMCEGEKRKLVIPSELGYGERGWPPKIPGGATLVFEVELLKIE
modifications: C-terminal R deleted; Description of sequence: Construct Name: FKBP-162; Mutation(s): Q72R Q84E A117W DRD M54A del c-term R V85R
B2: FKBP-203: FKBP13 DRD-AcGFP construct of Table 10 (protein)
chain: HCPIKSRKGDVLHAHYTGKLEDGTEFDSSLPRNQLFVFSLGTGERIKGWDQGLLGMCEGEKRKLVIPSELGYGERGWPPKIPGGATLVFEVELLKIER
modifications: Description of sequence: Construct Name: FKBP-203; Mutation(s): Q72R Q84E A117W V85R DRD M54A P75L
B3: FKBP-205 (protein)
chain: B2 chain with L35P, L64V
modifications: Description of sequence: Construct Name: FKBP-205; Mutation(s): Q72R Q84E A117W V85R DRD M54A L104V
B4: FKBP-211 (protein)
chain: B2 chain with D22S, L35P
modifications: Description of sequence: Construct Name: FKBP-211; Mutation(s): Q72R Q84E A117W V85R DRD M54A D62S
B5: FKBP-208 (protein)
chain: B2 chain with L35P, E90R
modifications: Description of sequence: Construct Name: FKBP-208; Mutation(s): Q72R Q84E A117W V85R DRD M54A E130R
B6: FKBP-210 (protein)
chain: B2 chain with L35P, E58L
modifications: Description of sequence: Construct Name: FKBP-210; Mutation(s): Q72R Q84E A117W V85R DRD M54A E98L
B7: FKBP-213 (protein)
chain: B2 chain with P3R, L35P, E44G, R45V
modifications: Description of sequence: Construct Name: FKBP-213; Mutation(s): Q72R Q84G A117W DRD P43R M54A
B8: FKBP-204 (protein)
chain: B2 chain with L35P, D50A
modifications: Description of sequence: Construct Name: FKBP-204; Mutation(s): Q72R Q84E A117W V85R DRD M54A D90A
B9: FKBP-207 (protein)
chain: B2 chain with L35P, I96V
modifications: Description of sequence: Construct Name: FKBP-207; Mutation(s): Q72R Q84E A117W V85R DRD M54A I136V
B10: FKBP-214: FKBP13 DRD-AcGFP construct of Table 10 (protein)
chain: B2 chain with P3R, L35P, E44G
modifications: Description of sequence: Construct Name: FKBP-214; Mutation(s): Q72R Q84G A117W V85R DRD P43R M54A
B11: FKBP-209: FKBP13 DRD-AcGFP construct of Table 10 (protein)
chain: B2 chain with L35P, K61W
modifications: Description of sequence: Construct Name: FKBP-209; Mutation(s): Q72R Q84E A117W V85R DRD M54A K101W
B12: FKBP-212 (protein)
chain: B2 chain with H13L, L35P
modifications: Description of sequence: Construct Name: FKBP-212; Mutation(s): Q72R Q84E A117W V85R DRD M54A H53L
B13: FKBP-206 (protein)
chain: B2 chain with L35P, K95Y
modifications: Description of sequence: Construct Name: FKBP-206; Mutation(s): Q72R Q84E A117W V85R DRD M54A K135Y
B14: FKBP-259: FKBP13 DRD-AcGFP construct of Table 10 (protein)
chain: B2 chain with A14M, L35P, E90K
modifications: Description of sequence: Construct Name: FKBP-259; Mutation(s): Q72R Q84E A117W V85R DRD E130K
B15: FKBP-257: FKBP13 DRD-AcGFP construct of Table 10 (protein)
chain: B2 chain with A14M, L35P, E97F
modifications: Description of sequence: Construct Name: FKBP-257; Mutation(s): Q72R Q84E A117W V85R DRD E137F
B16: FKBP-256: FKBP13 DRD-AcGFP construct of Table 10 (protein)
chain: B2 chain with A14M, L35P, E97M
modifications: Description of sequence: Construct Name: FKBP-256; Mutation(s): Q72R Q84E A117W V85R DRD E137M

tested on: not listed separately; assay: Example 4: dose response of FKBP constructs 160-255, Ec50, Ec90 and fold change (raw and normalized to mCherry); format: cell-based; conditions: FKBP constructs 160-255; not normalized; read-out: EC90
Procedure: Additional experiments were performed for constructs FKBP-160-292.

In order of rising EC90:
1. B7  47.4 nM
2. B3  183 nM
3. B6  191 nM
4. B12  299 nM
5. B9  311 nM
6. B10  388 nM
7. B4  452 nM
8. B13  573 nM
9. B2  657 nM
10. B11  682 nM
11. B1  1800 nM
12. B5  4220 nM
13. B8  15200 nM

same assay, conditions: fold change during initial analysis

In order of rising “FC (fold change)” value:
1. B7  28.8
2. B3  30.1
3. B6  32.8
4. B9  35.4
5. B4  35.7
6. B8  37.9
7. B12  40.2
8. B1  46.6
9. B13  50.1
10. B10  51.0
11. B11  56.0
12. B2  66.0
13. B5  87.2

same assay, conditions: normalized to mCherry; read-out: EC90 (Norm)

In order of falling EC90:
1. B8  15500 nM
2. B5  4120 nM
3. B1  1870 nM
4. B11  777 nM
5. B2  747 nM
6. B13  550 nM
7. B4  481 nM
8. B10  390 nM
9. B12  317 nM
10. B9  302 nM
11. B6  208 nM
12. B3  184 nM
13. B7  47 nM

tested on: Jurkat cells; assay: Tacrolimus dose response of FKBP13-AcGFP-mCherry constructs stably transduced into Jurkat cells, GFP MFI by flow cytometry; format: cell-based; design: Basal: unit not given here; conditions: FIG. 40
Summary of the method: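 GFP geometric MFI was read by flow cytometry in mCherry+ cells and curve-fitted against tacrolimus dose. Cells were Jurkat E6-1, lentivirus-transduced with FKBP13-AcGFP-mCherry fusion constructs until 10-25% mCherry-positive on day 5 post-transduction.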

B14 gave a Basal of 72.3.

B14 showed an FC of 90.

Molecule B14 has a Peak of 6232.

same assay, conditions: FIG. 41

In order of rising Basal:
1. B15  98
2. B16  111

In order of rising FC:
1. B15  59
2. B16  65

In order of rising Peak:
1. B15  5501
2. B16  6851

same assay, conditions: FIG. 43; BR1 (Biorep 1)

In order of rising Basal:
1. B15  107
2. B16  110

In order of falling FC:
1. B16  71.46
2. B15  59.79

same assay, conditions: FIG. 43; BR1 (Biorep 1); at 10 uM

In order of rising “At 10 uM” value:
1. B15  6397
2. B16  7861

same assay, conditions: FIG. 43; BR2 (Biorep 2)

In order of rising Basal:
1. B15  118
2. B16  125

In order of rising FC:
1. B15  50.39
2. B16  59.04

same assay, conditions: FIG. 43; BR2 (Biorep 2); at 10 uM

In order of rising “At 10 uM” value:
1. B15  5946
2. B16  7380

same assay, conditions: FIG. 47; BR1 (Biorep 1)

With B14 the Basal was 70.7.

With B14 the FC was 95.97.

same assay, conditions: FIG. 47; BR1 (Biorep 1); at 10 uM

In the case of B14, the “At 10 uM” value is reported as 6785.

same assay, conditions: FIG. 47; BR2 (Biorep 2)

For B14, the Basal was 77.3.

Molecule B14 has an FC of 84.76.

same assay, conditions: FIG. 47; BR2 (Biorep 2); at 10 uM

For B14, the “At 10 uM” value was 6552.

same assay, conditions: tacrolimus; FIGS. 29 and 30

In order of rising FC:
1. B15  65
2. B16  78
3. B14  103

same assay, conditions: tacrolimus; Jurkat cells; Table 13

In order of falling “Fold Change” value:
1. B14  103
2. B16  78
3. B15  65
